What is called Kd is a measure of binding affinity in units of concentration.

Here are results for seven molecules from patent publication US20260070976A1.

Numbering of substitutions follows the chain as printed.

Sequences and labels used below:
B1: X11 (antibody, human IgG4, V domains shown)
VH: QVQLVQSGAEVKKPGSSVKVSCKASGYNFLNYDVNWVRQAPGQGLEWMGGIIPIFGTANYAQKFQGRVTITADESTSTAYMELSSLRSEDTAVYYCATGVGAGWFDPWGQGTLVTVSS
VL: DIVMTQSPDSLAVSLGERATINCKSSQSVYFSENNKNYLAWYQQKPGQPPKLLIYWASTRESGVPDRFSGSGSGTDFTLTISSLQAEDVAVYYCQQYYEEPYTFGQGTRLEIK
B2: X20 (antibody, human IgG4, V domains shown)
VH: B1 VH with N31H, G99A
VL: B1 VL
B3: X18 (antibody, human IgG4, V domains shown)
VH: B1 VH with N31H, G99A, P107T
VL: B1 VL with Y30W, S32D, E33P, Y98F
B4: X4 (antibody, human IgG4, V domains shown)
VH: B1 VH
VL: B1 VL with E33P, Y98F
B5: X14 (antibody, human IgG4, V domains shown)
VH: B1 VH with N31H, G99A, P107T
VL: B1 VL with E33P, Y98F
B6: X17 (antibody, human IgG4, V domains shown)
VH: B1 VH with N31H, G99A, P107T
VL: B1 VL with Y30F, S32D, Y98F
B7: X7 (antibody, human IgG4, V domains shown)
VH: B1 VH
VL: B1 VL with Y30F, S32D, Y98F

One test concerns the target recombinant cynomolgus PILRB (cynomolgus monkey). Put plainly: SPR, Biacore T200, antibody captured by anti-Fab. For orientation: SPR reads the build-up and loss of mass on a sensor chip optically.
Consider B1, for which the Kd came to 0.4 nM.

For another test the target is unchanged. Put plainly: SPR, Carterra LSA, antibody amine-coupled, kinetic fit.
As to B2, the equilibrium dissociation constant (Kd) was determined as 0.1 nM. Regarding B3, the dissociation constant (Kd) came to 0.3 nM. In the case of B4, the Kd was 0.3 nM. The same measure, in the same setting: in the case of B5 it was 0.2 nM; in that of B1, 0.5 nM; in that of B6, 0.3 nM. The same measure, in the same setting: in the case of B7 it was 0.5 nM.
